The target of the data set is T1, TFAM K4Q4 (acetyl-lysine mimic) (Homo sapiens, UniProt Q00059 43-246, K62Q;K76Q;K111Q;K118Q).
T1 sequence: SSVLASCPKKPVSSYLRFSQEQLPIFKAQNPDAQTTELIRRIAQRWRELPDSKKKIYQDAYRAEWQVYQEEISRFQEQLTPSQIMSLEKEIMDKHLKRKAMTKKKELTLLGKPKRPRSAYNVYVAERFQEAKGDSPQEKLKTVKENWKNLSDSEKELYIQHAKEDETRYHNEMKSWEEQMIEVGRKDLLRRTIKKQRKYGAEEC
As to the kind of experiment: MST.

B1: non-specific 18 bp duplex with 13 nt overhang (mixed)
DNA 1: GTCACTGTTCGAGCACCA
DNA 2: CCATAGATAGCATTGGTGCTCGAACAGTGAC
The Kd is the constant that tells how readily two partners part at equilibrium. Lower therefore signals a tighter complex. In turn, B1 showed a Kd of 131 ± 17 nM.

These data come from paper PMC5909435.
